In series [1] the target is T1, P450 4A11 (Homo sapiens, UniProt Q02928).
T1 sequence (Q02928 5-519): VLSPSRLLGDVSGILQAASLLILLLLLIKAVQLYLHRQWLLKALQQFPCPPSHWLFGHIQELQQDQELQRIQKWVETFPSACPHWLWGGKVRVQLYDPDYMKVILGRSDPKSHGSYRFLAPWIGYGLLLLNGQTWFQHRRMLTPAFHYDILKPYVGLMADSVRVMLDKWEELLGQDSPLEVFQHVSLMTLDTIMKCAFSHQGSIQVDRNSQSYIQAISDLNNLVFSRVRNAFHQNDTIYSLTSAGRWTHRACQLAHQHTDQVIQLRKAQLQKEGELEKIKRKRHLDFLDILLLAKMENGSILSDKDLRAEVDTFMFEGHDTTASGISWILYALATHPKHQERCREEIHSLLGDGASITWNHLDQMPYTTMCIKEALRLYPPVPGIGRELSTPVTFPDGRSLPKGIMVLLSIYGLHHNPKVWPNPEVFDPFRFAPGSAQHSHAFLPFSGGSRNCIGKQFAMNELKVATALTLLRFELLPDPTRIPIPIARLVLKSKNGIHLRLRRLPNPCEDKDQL

Series [2] concerns the target T2, Cytochrome P450 4A11 (human, UniProt Q02928 5-519).
T2 construct: cytochrome P450 4A11, human fatty acid ω-hydroxylase
T2 sequence (looked up): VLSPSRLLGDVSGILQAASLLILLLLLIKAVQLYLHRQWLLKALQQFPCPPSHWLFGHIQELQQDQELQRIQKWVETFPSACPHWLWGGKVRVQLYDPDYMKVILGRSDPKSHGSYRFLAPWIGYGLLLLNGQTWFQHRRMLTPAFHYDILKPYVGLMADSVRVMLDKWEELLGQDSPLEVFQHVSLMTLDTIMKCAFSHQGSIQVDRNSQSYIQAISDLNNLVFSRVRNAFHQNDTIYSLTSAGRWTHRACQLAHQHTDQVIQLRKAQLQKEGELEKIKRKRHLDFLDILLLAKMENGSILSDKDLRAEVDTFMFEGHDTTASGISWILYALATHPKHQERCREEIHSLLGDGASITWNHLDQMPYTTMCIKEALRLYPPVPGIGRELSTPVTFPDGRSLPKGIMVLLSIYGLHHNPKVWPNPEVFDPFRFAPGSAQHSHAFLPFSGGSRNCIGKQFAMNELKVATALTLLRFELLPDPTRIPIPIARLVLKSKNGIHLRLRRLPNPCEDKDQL
Nature of the series: other fluorescence titration; Alexa-FABP1 (25 nM) in the cuvette, P450 4A11 titrated in (0–50 nM); 10 mM potassium phosphate, pH 7.4; excitation 470 nm, emission maximum 510 nm; quadratic fit; no phospholipid. Particulars: both partners purified.

For series [3], the target named is T2, Cytochrome P450 4A11. Nature of the series: stopped-flow fluorescence kinetics; Alexa-FABP1 and P450 4A11 rapidly mixed, 0.125 μM each final; 100 mM potassium phosphate, pH 7.4; excitation 470 nm, emission >495 nm; single exponential fit and KinTek Explorer fit to E+F↔EF. Particulars: both partners purified.
For series [4], the target named is T2, Cytochrome P450 4A11. In words: other fluorescence titration; Alexa-FABP1 (25 nM) in the cuvette, P450 titrated in (P450 4A11 0–50 nM); 100 mM potassium phosphate, pH 7.4; excitation 470 nm, emission maximum 510 nm; normalized to a buffer titration; no phospholipid. Particulars: both partners purified.

The source of these data is paper PMC11847541, “Liver fatty acid binding protein FABP1 transfers substrates to cytochrome P450 4A11 for catalysis” (The Journal of Biological Chemistry, 2025).

As to `CC(=O)N1CCN(c2ccc(OCC3COC(Cn4ccnc4)(c4ccc(Cl)cc4Cl)O3)cc2)CC1` (centres unmarked) [ketoconazole], in series [1], the “P450 heme Soret spectral shift induced” value was “type II”.

B1: Alexa Fluor 488–labeled FABP1 (natural protein, human, UniProt P07148 1-127, looked up)
chain: MSFSGKYQLQSQENFEAFMKAIGLPEELIQKGKDIKGVSEIVQNGKHFKFTITAGSKVIQNEFTVGEECELETMTGEKVKTVVQLEGDNKLVTTFKNIKSVTELNGDIITNTMTLGDIVFKRISKRI
modifications: Alexa Fluor 488 C5 maleimide on Cys-71 of the construct (Cys-69 of FABP1); low background labeling of free amines
notes: final construct is a 15,185.4 Da protein; Cys-69 of FABP1 is Cys-71 in the construct. numbers count on: Cys-71 on the construct, Cys-69 on FABP1; The unlabeled, delipidated form of the same protein was used in the palmitate transfer and catalytic assays; also called Alexa-FABP1; Alexa-488-labeled FABP1; not shown: GST, N-terminal, cleaved; His6, C-terminal, kept
As to B1, the Kd is 3.3 ± 0.9 nM in series [2] and 120 ± 80 nM in series [4]. Further, in series [3], the koff worked out at 2.4 s⁻¹. The molecule also yielded a kon in series [3] of 2e+07 M⁻¹ s⁻¹.
